In publication PMC6601565:

Key:
[1] = biological target: human CD16A-158F ECD fused to Avi-tagged and biotinylated monomeric Fc (silenced) (human) (UniProt P08637); assay: SPR
[2] = biological target: human CD16A-158V ECD fused to Avi-tagged and biotinylated monomeric Fc (silenced) (human); assay: SPR

Sequence of UniProt P08637 (P08637 17-208): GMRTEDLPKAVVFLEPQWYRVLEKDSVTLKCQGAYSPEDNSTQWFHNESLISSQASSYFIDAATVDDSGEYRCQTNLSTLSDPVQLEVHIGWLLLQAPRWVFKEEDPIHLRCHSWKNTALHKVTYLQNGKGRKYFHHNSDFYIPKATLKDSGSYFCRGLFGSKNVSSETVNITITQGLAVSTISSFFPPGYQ

Row | Kd [1] [nM] | koff [1] [s⁻¹] | kon [1] [M⁻¹ s⁻¹] | Kd [2] [nM] | koff [2] [s⁻¹] | kon [2] [M⁻¹ s⁻¹] | Substance
1 | 34700 | 0.71 | 20400 |  |  |  | human IgG1 with silenced Fc (L234F/L235E/D265A) (antibody)
2 | 2720 | 0.0675 | 24800 | 424 | 0.00995 | 23500 | human IgG1 with wildtype Fc (antibody)
3 |  |  |  | 13.5 | 0.00639 | 474000 | human IgG1 with enhanced Fc (S239D/I332E) (antibody)
